# Measured values published in article PMC5373496 (Science (New York, N.Y.), 2016).
# T1: Cdc37 tagged at its N terminus with T4 lysozyme (human, UniProt Q16543 1-378)
# T1 sequence (looked up): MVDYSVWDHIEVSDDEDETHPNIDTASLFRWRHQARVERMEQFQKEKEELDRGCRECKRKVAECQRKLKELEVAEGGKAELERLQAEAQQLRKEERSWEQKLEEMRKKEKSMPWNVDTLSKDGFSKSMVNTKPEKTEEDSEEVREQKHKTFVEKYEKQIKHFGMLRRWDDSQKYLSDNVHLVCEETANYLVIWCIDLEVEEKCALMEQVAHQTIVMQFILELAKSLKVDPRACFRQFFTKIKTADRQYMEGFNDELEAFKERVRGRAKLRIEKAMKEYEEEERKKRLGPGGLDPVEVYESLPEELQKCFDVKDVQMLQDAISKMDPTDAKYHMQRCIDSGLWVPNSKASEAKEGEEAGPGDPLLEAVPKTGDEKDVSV
# T2: Cdc37 of the yeast complex with T4 lysozyme-tagged Cdk4 (human, UniProt Q16543 1-378)
# T2 sequence (looked up): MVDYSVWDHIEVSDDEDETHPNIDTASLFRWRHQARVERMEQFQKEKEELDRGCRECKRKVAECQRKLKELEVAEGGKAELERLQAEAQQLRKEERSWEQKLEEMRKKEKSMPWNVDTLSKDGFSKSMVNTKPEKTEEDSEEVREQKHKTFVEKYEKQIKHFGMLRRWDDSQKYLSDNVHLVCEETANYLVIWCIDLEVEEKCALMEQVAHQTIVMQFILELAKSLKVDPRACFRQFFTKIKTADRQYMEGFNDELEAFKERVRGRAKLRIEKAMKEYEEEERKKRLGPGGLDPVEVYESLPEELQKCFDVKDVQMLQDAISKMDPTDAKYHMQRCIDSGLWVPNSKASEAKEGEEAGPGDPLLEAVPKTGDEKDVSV
# What was measured:
# [1] = molecular target: T1, Cdc37 tagged at its N terminus with T4 …; assay: cryo-EM structure
# [2] = molecular target: T2, Cdc37 of the yeast complex with T4 …; assay: cryo-EM structure
binding result [1],binding result [2],Binder
binds,–,"Cdk4 of the yeast complex with T4 lysozyme-tagged Cdc37 (natural protein, human, UniProt P11802 1-303, looked up) MATSRYEPVAEIGVGAYGTVYKARDPHSGHFVALKSVRVPNGGGGGGGLPISTVREVALLRRLEAFEHPNVVRLMDVCATSRTDREIKVTLVFEHVDQDLRTYLDKAPPPGLPAETIKDLMRQFLRGLDFLHANCIVHRDLKPENILVTSGGTVKLADFGLARIYSYQMALTPVVVTLWYRAPEVLLQSTYATPVDMWSVGCIFAEMFRRKPLFCGNSEADQLGKIFDLIGLPPEDDWPRDVSLPRGAFPPRGPRPVQSVVPEMEESGAQLLLEMLTFNPHKRISAFRALQHSYLHKDEGNPE"
–,binds,"Cdk4 tagged at its C terminus with T4 lysozyme (natural protein, human, UniProt P11802 1-303, looked up) MATSRYEPVAEIGVGAYGTVYKARDPHSGHFVALKSVRVPNGGGGGGGLPISTVREVALLRRLEAFEHPNVVRLMDVCATSRTDREIKVTLVFEHVDQDLRTYLDKAPPPGLPAETIKDLMRQFLRGLDFLHANCIVHRDLKPENILVTSGGTVKLADFGLARIYSYQMALTPVVVTLWYRAPEVLLQSTYATPVDMWSVGCIFAEMFRRKPLFCGNSEADQLGKIFDLIGLPPEDDWPRDVSLPRGAFPPRGPRPVQSVVPEMEESGAQLLLEMLTFNPHKRISAFRALQHSYLHKDEGNPE"
